Measured values published in patent publication US20240368668A1, “SUBSTRATES AND BIOMARKERS OF ADAMTS7” (The Broad Institute, Inc., priority 2021, published 2024).
Square brackets hold non-standard residues; d marks the D form. Ends that are not written are not given here.

Target: T1, mouse ADAMTS7 (Mus musculus, UniProt Q68SA9, E373Q)
T1 construct: Full-length mouse Adamts7 1-1857 (Uniprot Q68SA9, WT or E373Q catalytic mutant); expressed in transfected cells; host or cells: Human Coronary Artery Smooth Muscle Cells (HCA-SMC, Lonza), adenovirus 50 MOI
T1 sequence (Q68SA9 221-1657 E373Q): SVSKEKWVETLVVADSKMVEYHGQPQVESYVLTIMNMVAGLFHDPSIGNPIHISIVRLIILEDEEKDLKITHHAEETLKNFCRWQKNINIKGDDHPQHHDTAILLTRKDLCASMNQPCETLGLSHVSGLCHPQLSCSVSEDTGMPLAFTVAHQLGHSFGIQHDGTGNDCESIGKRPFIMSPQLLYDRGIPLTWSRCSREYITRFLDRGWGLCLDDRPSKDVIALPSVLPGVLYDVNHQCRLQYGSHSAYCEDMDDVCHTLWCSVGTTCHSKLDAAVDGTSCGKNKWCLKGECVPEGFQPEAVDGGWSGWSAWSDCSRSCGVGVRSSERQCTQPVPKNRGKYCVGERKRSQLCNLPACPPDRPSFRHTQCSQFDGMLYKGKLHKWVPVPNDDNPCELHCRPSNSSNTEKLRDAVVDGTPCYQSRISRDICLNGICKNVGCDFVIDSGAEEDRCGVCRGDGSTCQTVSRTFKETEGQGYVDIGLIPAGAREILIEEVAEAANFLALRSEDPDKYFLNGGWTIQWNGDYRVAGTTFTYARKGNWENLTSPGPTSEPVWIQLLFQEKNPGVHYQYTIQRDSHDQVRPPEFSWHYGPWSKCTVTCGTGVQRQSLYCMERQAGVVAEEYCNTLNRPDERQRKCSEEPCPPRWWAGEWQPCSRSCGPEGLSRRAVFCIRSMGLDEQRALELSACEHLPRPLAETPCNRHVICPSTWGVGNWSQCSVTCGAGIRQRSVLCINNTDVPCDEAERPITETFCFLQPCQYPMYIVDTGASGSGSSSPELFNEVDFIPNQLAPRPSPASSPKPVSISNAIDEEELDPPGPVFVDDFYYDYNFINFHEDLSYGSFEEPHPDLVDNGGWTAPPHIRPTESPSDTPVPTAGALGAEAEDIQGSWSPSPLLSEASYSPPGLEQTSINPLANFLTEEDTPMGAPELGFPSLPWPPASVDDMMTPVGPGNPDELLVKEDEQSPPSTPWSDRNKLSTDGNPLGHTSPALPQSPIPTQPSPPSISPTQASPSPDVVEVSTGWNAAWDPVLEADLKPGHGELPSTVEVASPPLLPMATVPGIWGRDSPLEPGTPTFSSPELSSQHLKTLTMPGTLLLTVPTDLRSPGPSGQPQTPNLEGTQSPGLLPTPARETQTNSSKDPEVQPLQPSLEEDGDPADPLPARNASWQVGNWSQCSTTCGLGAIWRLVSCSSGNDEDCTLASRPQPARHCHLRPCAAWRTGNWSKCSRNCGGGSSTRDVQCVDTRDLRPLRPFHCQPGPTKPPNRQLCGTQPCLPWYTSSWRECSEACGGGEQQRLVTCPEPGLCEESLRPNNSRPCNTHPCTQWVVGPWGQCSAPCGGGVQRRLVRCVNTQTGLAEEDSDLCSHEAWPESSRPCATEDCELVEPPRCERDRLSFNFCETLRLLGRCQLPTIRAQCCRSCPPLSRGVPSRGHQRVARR
Assay: TMT10 TAILS N-terminomics, HUVEC experiment (process replicates, trypsin/AspN digest)
Assay type: cell-based, human
Conditions: HUVEC TAILS HC; log fold change of N-terminal peptide, Ad-mADAMTS7 EQ over Luc
Procedure, shortened: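 Full-length mouse ADAMTS7 (WT or E373Q mutant, C-terminal 3xFLAG) or luciferase was transduced via adenovirus, 50 MOI, into HCA-SMC (SMC1, SMC2) or HUVEC. SMC1: pooled media, technical triplicates 400 ug; SMC2: process triplicates 300 ug; HUVEC: process triplicates 200 ug, bFGF2 10 ng/ml.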

With “ECM1_108 (QEAVPLQK; listed as Homo sapiens)” the logFC.mEQ.over.Luc was 0.09.
“EFEMP1_125_ (VAGPEMQTGR; listed as Homo sapiens)” was tested, and the logFC.mEQ.over.Luc was −0.11.
“ERAP2_718 (ISENLKR; listed as Homo sapiens)” was tested, and the logFC.mEQ.over.Luc was 0.64.
Work on “EWSR1_87 (YSQPVQGYGTGAY; listed as Homo sapiens)” yielded a logFC.mEQ.over.Luc of −0.05.
“FN1_34 ([code q]QMVQPQSPVAVSQSKPGCY; not fully specified (residue 3); listed as Homo sapiens)” gave a logFC.mEQ.over.Luc of −0.06.
With “FN1_35 ([code q]MVQPQSPVAVSQSKPGCY; not fully specified (residue 2); listed as Homo sapiens)” the logFC.mEQ.over.Luc was −0.27.
For “FN1_293 (VYQPQPHPQPPPYGHCVT; listed as Homo sapiens)”, the logFC.mEQ.over.Luc was −0.29.
For “FN1_607 (SSSGPVEVFIT; listed as Homo sapiens)”, the logFC.mEQ.over.Luc was −0.40.
For “FN1_1144 (TPGVEYVYTIQVLR; listed as Homo sapiens)”, the logFC.mEQ.over.Luc was −0.19.
With “FN1_1780 (LQGLRPGSEYTVSVVALH; listed as Homo sapiens)” the logFC.mEQ.over.Luc was −0.47.
“FN1_1805 (LIGTQSTAIPAPT; listed as Homo sapiens)” was tested, and the logFC.mEQ.over.Luc was 0.05.
Work on “FN1_2113 (FVTHPGY; listed as Homo sapiens)” yielded a logFC.mEQ.over.Luc of −0.62.
Work on “FSTL1_290 (LQKHQETA; listed as Homo sapiens)” yielded a logFC.mEQ.over.Luc of −0.24.
Work on “LOX_125 (FQAGYSTSR; listed as Homo sapiens)” yielded a logFC.mEQ.over.Luc of 0.24.
